Assay results taken from the supplement of paper PMC9942255.
Several values for one entry are separate records, joined by “and”; a condition that tells them apart may be missing. Equal entries are not always repeated.

tested on: Bacillus subtilis DB104 (SP-AmyQ fusion secretion); test: AmyQ secretion efficiency, weighted average sort bin (1 = best secretion, 10 = worst) (bin number (weighted average, 1-10)); higher = lower secretion efficiency
Procedure, shortened: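 With fluorescein-starch as substrate, a B. subtilis DB104 library expressing mature AmyQ fused to designed signal peptides (integrated at amyE) was encapsulated at about 0.3 cells per ~65 nL alginate bead. After about 13 h at room temperature, beads were nile red stained, and occupied beads were sorted by large-particle flow cytometry into 10 equally populated bins by green/red fluorescence ratio. Illumina sequencing of the amplicons in each bin was used to calculate the secretion score, which is the read-frequency-weighted average bin number, normalised to beads per bin, with low-abundance sequences left out.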

Sequence | AmyQ secretion efficiency
MKKVLMAFIICLSLILSVLAAPPSGTKAESV | 2.94
MKKAKRVSALTPSTTLAITAKAKEL | 7.61
MKLSVKIAGVLTVAAAAMTAKMYATIKGN | 6.84
MKVPKTMLLSTAAGLLLSLTATSPPFPPVSAHYV | 4.04
MHLIRAAGAVCLAVVLIAGCRFIIVAIGAEGENT | 6.53
MRKNRILALFVLSLGLLSFMVTPVSAASK | 2.04 and 2.05 and 2.92
MKRFSTAYLLLGILCSAAVFLIGAPSRTLGAEV | 3.24
MKKRITYSLRRLLAVVAFAFTDSSKAKAAEA | 5.28
MKKIWIGMLAAAVLLLMVPKVSLADAA | 3.23 and 2.34 and 3.08
MKKRINLIGFLVLVPALIMSGITLIEANKK | 7.4
MKWMCSICCAAVLLAGGASQAEAV | 3.1
MKKRFFGPIILAFILFAGAIKIPS | 5.25
MRGKSAVLLSLIMLIAGFLQQSFSFQM | 7.38
MSKWMAGLFLAAAVLLCLMVPQQIQGASS | 4.5
MKRIRIPMTYTGTAALTIAPLSFASAEEN | 7.36
MLKKKWMVGLLAGCLAAGGFSYNAFYTEN | 6.38
MRNLTKMMNTSLLLAGLCTAAQMVFVTHASAEES | 2.48
MGGVFPLILSAVLFLSCFFGARQTEASASKR | 4.03
MKKLVLCVSILAVILKRKRKKALTQLS | 6.12
MKRIRIPMTLALGAALTIAPLSFPATVPGAGGTTASAEEN | 4.38
MLKKKWMVGLLAGCLAAGGFSYNAFLTEN | 6.4
MMKKGRSRQQLTATVLFGTCAVDVPGIISPKTAEAASQ | 7.68
MKRKLLSSLAISALSLGLLVSAPTALFAAES | 2.49
MKSKWMSGLLLVAVGFSFTQVMVHSGET | 6.94
MKVLLSALLLLLFAFFTSFTLTLFEPSASGKKL | 7.36
MKRLFMKASLVLFAVVFVFAVKGAPMKAETH | 1.95

Sequence | AmyQ secretion efficiency
MPVLLSALLLLLFAFEPSASGKKL | 6.19
MLCVMMLLFSAIALFLVASFPVSAQAKDQ | 7.1
MKKAFILSAAAAVGLFTFKKKRRRASAKEL | 7.21
MKKTIMSFVAVAALSTTAFGAHASAADD | 2.13
MRIFKKAVFVIMISFLIATVNVNTAHAEDD | 3.86
MKKLLALLAVVAFAFTDSSKAKAAEA | 2.03
MRKKRVITCVMAASLTLGPAGYASAKED | 3.6
MMIKQCYGCKSLLVFGTTAAHAEET | 7.62
MKKKQVSHAIIISVMLSFVIAVFHTIHASERKR | 7.08
MPYLKRVLLLLVTGLFMSLFAVTATASAEDD | 3.73
MKSLPYTIALLFCGLIIVSMAAKGKKR | 7.49
MKLKSKLLLSCLALSTVFVATTIVNAPTH | 5.07
MSTGTSGSLISSLIVLSTVVISSLLFPGAAGASSK | 2.34
MLKKKWMVGLLAGCLAGFSYNAFATEN | 5.96
MKVCQKSIVRFLVSLIIGTFVISVPFMANAQDD | 2.65
MLKKKWMVGLLAGCLAAGEEPYNAFATEN | 4.04
MRIFKKAVFVIMISFLIATVNVNTCHAAID | 3.94
MGLGKKLSVAVAASFMSLSISLVSVQAAEG | 1.37
MKRMIRTLPLLIVCLAFSSFSASARAASE | 2.17
MNKFLKSNFRFLLAAALGISLLKRSNFIKASND | 6.59
MYKKFVPFAVFLFLFFVSFEMMENCHALDY | 7.9
MKRITINIITMFIAAAVIEEDEEAEAAEK | 5.79
MKKTIMSFVAVAALSTTAFGAHRSAKEI | 5.69
MRKKRTVITCVMAASLTLGSLLPAGYATAKED | 6.07
MKMKSGMEQAVSVLLLLSRLPVQASLTSE | 7.57 and 7.03
MRKYTTKGYQKTYFLSVLSGGHHESKAFPV | 8.3

Sequence | AmyQ secretion efficiency
MVKKWLIQFAVMLSVLSTFTYSASAVGV | 3.04 and 1.99
MKKKRKKGGTGSAIVGTTLVVTPAEAATI | 7.88
MLKRTSFVSSLFIFMAVLLIILTLPSGQAHAQSA | 1.9
MFKKHTISLLIIFLLASAVLAKPIEYHTV | 5.13
MLKKIALTLCPAIVGSLLFFTAPNSAHVS | 6.42
MKVLLSALLLLLFAFFEPSASGKKL | 6.51
MMRIRIPMTLALGAALTIAPLSFASAEEN | 2.92
MKRMCSICCAAVLLAGGAAQAEAV | 3.05
MTGWLIIAVSLAIAIVLFMYTKGEAKAAGM | 7.08
MTMLRKIIGWILLLCIIATPLFAFTVIASGKEV | 5.08
MRNLTKTSLLLAGLCTAAQMVFVTHASLEES | 3.72
MTMLRKIIGWILLLCIIPLFAFTVICSGKEV | 7.14
MKQGKFSVFLILLLMLTLVVAPKEKCEAASS | 1.62
MIVIMSFNLIILLFISIIVFLSVIQPQPS | 6.9
MFSKWMSGLLLVAVGFSFTQVMVHAGET | 6.12
MTKKAWFLPLVCVLLIRKKLAPAASASAQTT | 7.9
MKKRLIAPMLLSAASLAFFAEEESAQAAAY | 2.27
MSKLLAAGIIGLLTVSIASPSFAAEK | 3.64
MNLRKILLSSALSLGMLVSAAPVLNTSS | 5.87
MLKKKWMVGLLAGCLAAGGFSYNGSFVAFATEN | 3.96
MKKRLIAPMLLSAASLAFFAMSGSAQAAAR | 4.69
MHLIRAAGAVCLAVVLIAGCRDEEDEHQAEGENT | 4.66
MAIIIAIIAAVIVIAALITFNVENASPG | 8.68
MKSKGSIMACLILFSFTITSTVSATTFINTETISAFSN | 6.02
MKWMCSICCAAVLLAGGACQAEAV | 3.36
MKKRITYSLLALLAVVAFAFLTDSSKAKAAEA | 3.06

Sequence | AmyQ secretion efficiency
MKKVLMAFIICLSLILVVLAAGPSTAKAESV | 1.98
MTKKAWFLPLVCVLLISGWLAPAASASTQTT | 2.01
MFNRLFRVCFLAALIMAFTLPNSVYPQKP | 7.22
MKSRTIWTIILGALLVCCKKKKRTLTKSQAGASSS | 6.52
MKKWMITIAMLILAGIALFVFISPVKSHKT | 6.53
MGMKKKLSLGVASAALGLALVGGGGWAAFN | 6.46
MPYLKRMINFNNVLLLLVTGLFMSLFAVTATASAQTG | 1.05
MRGKSIAVLLSLIMLIAGFLISFSFQM | 5.87
MKKLIMALVILGALGTSYISADSS | 6.77 and 6.15
MKKRLIGFLVLVPALIMSGITLIENNKK | 6.74
MKKELLASLVLCLSLDDDDETNEVFAATT | 5.98
MKFVKRRIRKKRRRLMLSVTSLFALQPSAKAAEH | 6.62
MKQGRTFLTSFMLLAMTGQTALAKDV | 4.71
MKTKTLFIFSAILTLSIFAPNESFAQTA | 2.17
MKKISSVMLATALFLGLTPAGANAADL | 3.26
MMKKLFHSTLIVLLFFSFFGVQPLHAKKQ | 2.57
MKKVLMAFIICLSLILSVLAAPPSGPKAESV | 3.78
MSMMLRRNFKRFIAAFLVLALMISLVPADVLAKST | 1.81
MNFKKTVVSALSISALALSVSGVASARRK | 6.94
MTMLRKIIGWILLLCIIPLFAFTVIASGASK | 7.69
MKVLLSALLLLFEPSASGKKL | 7.48
MKKTIMSFVAVAALSTTAFKRRHASAKEI | 7.04
MKKSQYFIVFICFFVLFSVHPIAFTPSAAAADS | 2.09
MKRKKKRLCVMMLLFSAIASFPVSAQAKDQ | 3.18
MKKRLIAPMLLSAASLAFFAMSGSEQAAAY | 3.75
MRPVFPLILSAVLFLSCFFGAREASASKR | 1.24

Sequence | AmyQ secretion efficiency
MKKLLAAGIIGLLTVSIASPCFAAEK | 2.42
MKRIRIPMTLALGAALTIAPLSFPSAEEN | 6.68
MTMLRKIRKWILLLCIIPLFAFTVIASGKEV | 6.76
MRHKIIGRYQTSSGQIIIGNMIGGGGGSEATSK | 7.7
MGGMSCSILVVSVTLFFSFLTIGPLAHAQNS | 2.24
MKKKRMSFVAVAALSTTAFGAHASAKEI | 4.12
MRKNRILALFVLSLGLLSFMVTPVSAKRK | 2.57
MRKNRRGKQGTLSLGLLSFMVTPVSAASK | 7.32
MLTFLWMVGLLAGCLAAGGFSYNAFATEN | 7.84
MRSYIKVLTMCFLGLILFVPTALLDNS | 5.28
MKFVKRRIIALVTILMLSVTSLFALQPSFTPSPFFTVAKAAEH | 2.95
MKLSVKIAGVLTVAAAAMTAKMYHTAKGN | 6.87
MRKKRVITCVMAASLTLGSLLTAVTASAKED | 3.16
MKKKQVMLALTAAAGLGLTALHSAPAAKEAPL | 6.66
MKRLLVSLRVWMVFLMNWVTPDRKTAAARRK | 7.14
MNKKYFVLIVCIIFTSALFPTFSSITAAQG | 1.16
MKRLLSTLLIGIMLLTFAPSAFGKQD | 1.17
MKIRKILLSSALSFGMLISAVPALAAKK | 1.84
MKKRITYSLLALLAVVAFAFTDSSKAKAAEE | 2.71
MKLSVKIAGVLTVAAAAMTAKMYATAAGD | 6.46
MKSKGSIMACLILFSFTITTFINTETISGFSN | 6.11
MRMLWRSLALCGLALTLAPCAQVAEP | 6.05
MKKTIMSFVAVAALSTTAFGAHASPKEI | 3.96
